Assay results taken from patent US6040149A, “Assay for identifying agents which act on the ceramide-activated protein kinase, kinase suppressor of ras, and methods of using said agents” (priority 1997, dated 2000).

Tests used:
[1] = system: Raf-1; experiment: Raf-1 activity after co-expression with KSR in COS-7 cells; format: cell-based, human (Raf-1 expressed in COS-7 cells)
Protocol: Some studies used untagged KSR (n=4) and yielded identical results. At 60 hours post-transfection, cells were lysed with RIPA buffer (NP-40 buffer containing 0.1% SDS and 0.1% deoxy cholate). […] […]. The samples were boiled for 5 min, resolved with SDS-PAGE (7.5%) and autoradiographed.
[…]. After 30 min, the reaction was stopped by addition of Laemmli sample buffer and phosphorylated MBP were resolved by 15% SDS-PAGE, prior to autoradiography.
; a kind gift of Dr. Natalie Ahn) or 1.25 μg recombinant human MEK1 (Santa Cruz), 0.625 μg recombinant human ERK1 (UBI) and myelin basic protein (MBP). After 20-30 min, the reaction was stopped by addition of SDS sample buffer. […]

[2] = system: Raf-1; experiment: Activation of Raf-1 by KSR in vitro (MEK1 phosphorylation)
[3] = biological target: T1, KSR (Mus musculus, UniProt Q61097); experiment: KSR autophosphorylation after treatment of COS-7 cells expressing KSR; format: cell-based, mouse (KSR expressed in COS-7 cells); details: COS-7 cells, preliminary
T1 sequence (Q61097 1-873): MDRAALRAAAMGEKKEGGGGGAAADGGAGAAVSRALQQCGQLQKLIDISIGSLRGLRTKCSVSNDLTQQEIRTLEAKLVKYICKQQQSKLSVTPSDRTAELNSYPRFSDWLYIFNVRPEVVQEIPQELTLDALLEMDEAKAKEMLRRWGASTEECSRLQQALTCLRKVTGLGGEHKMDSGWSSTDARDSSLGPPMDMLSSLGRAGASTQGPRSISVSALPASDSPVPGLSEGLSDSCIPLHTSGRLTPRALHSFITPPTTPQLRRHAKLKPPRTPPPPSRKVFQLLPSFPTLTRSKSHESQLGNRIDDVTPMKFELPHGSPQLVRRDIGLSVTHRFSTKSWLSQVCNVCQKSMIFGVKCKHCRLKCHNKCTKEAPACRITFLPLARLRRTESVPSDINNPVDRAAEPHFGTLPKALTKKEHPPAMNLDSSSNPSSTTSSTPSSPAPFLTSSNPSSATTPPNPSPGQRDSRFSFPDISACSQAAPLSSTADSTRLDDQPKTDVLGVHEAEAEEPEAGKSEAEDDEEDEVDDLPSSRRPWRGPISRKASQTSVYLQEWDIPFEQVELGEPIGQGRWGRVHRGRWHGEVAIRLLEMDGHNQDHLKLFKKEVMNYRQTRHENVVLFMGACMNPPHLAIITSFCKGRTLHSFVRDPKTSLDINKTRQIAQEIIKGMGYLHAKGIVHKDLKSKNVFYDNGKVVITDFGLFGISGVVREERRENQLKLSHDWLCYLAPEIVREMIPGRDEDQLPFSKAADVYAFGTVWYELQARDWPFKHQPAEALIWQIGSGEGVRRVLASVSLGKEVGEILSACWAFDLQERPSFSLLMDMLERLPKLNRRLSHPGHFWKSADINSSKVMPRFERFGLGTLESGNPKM
Protocol: FIG. 23A--COS-7 cells were transfected as in FIG. 22A and placed in serum-free medium. After 4 hours, cells were stimulated for 10 min with the ceramide analog, C2-ceramide (Biomol), at the concentrations indicated. Cells were lysed with NP-40 lysis buffer, and Flag-tagged KSR (0.8 mg protein for each point) was immunoprecipitated and assayed for autophosphorylation activity as described in Experimental Procedures. The autoradiogram was exposed for 1 hour. KSR is expressed at similar levels in each sample as monitored by Western blot (data not shown). Data represent one of three similar experiments.
COS-7 cells expressing Flag-tagged KSR were stimulated with 10 nM TNFα for the times indicated and lysed with NP-40 buffer as in FIG. 2A. […] The autoradiogram was exposed for 1 hour. Data represent one of three similar experiments.
KSR was immunoprecipitated as above from 0.8 mg NP-40 lysate protein with 40 μl agarose-conjugated anti-Flag antibody at 4° C. for 4 hrs or overnight. […] The reaction was stopped by addition of Laemmli sample buffer. Samples were resolved by 7.5% sodium dodecyl sulfate-polyacrylamide gel electrophoresis (SDS-PAGE) and autoradiographed.

Molecule | Raf-1 activation in COS-7 cells co-expressing KSR [1] | direct effect on MEK or ERK [2] | activation of KSR/CAP kinase [3]
KSR: mouse kinase suppressor of ras, Flag-tagged (protein, UniProt Q61097 1-873, looked up, Flag tag, mouse kinase suppressor of ras, Flag-tagged) Kinase suppressor of Ras 1: MDRAALRAAAMGEKKEGGGGGAAADGGAGAAVSRALQQCGQLQKLIDISIGSLRGLRTKCSVSNDLTQQEIRTLEAKLVKYICKQQQSKLSVTPSDRTAELNSYPRFSDWLYIFNVRPEVVQEIPQELTLDALLEMDEAKAKEMLRRWGASTEECSRLQQALTCLRKVTGLGGEHKMDSGWSSTDARDSSLGPPMDMLSSLGRAGASTQGPRSISVSALPASDSPVPGLSEGLSDSCIPLHTSGRLTPRALHSFITPPTTPQLRRHAKLKPPRTPPPPSRKVFQLLPSFPTLTRSKSHESQLGNRIDDVTPMKFELPHGSPQLVRRDIGLSVTHRFSTKSWLSQVCNVCQKSMIFGVKCKHCRLKCHNKCTKEAPACRITFLPLARLRRTESVPSDINNPVDRAAEPHFGTLPKALTKKEHPPAMNLDSSSNPSSTTSSTPSSPAPFLTSSNPSSATTPPNPSPGQRDSRFSFPDISACSQAAPLSSTADSTRLDDQPKTDVLGVHEAEAEEPEAGKSEAEDDEEDEVDDLPSSRRPWRGPISRKASQTSVYLQEWDIPFEQVELGEPIGQGRWGRVHRGRWHGEVAIRLLEMDGHNQDHLKLFKKEVMNYRQTRHENVVLFMGACMNPPHLAIITSFCKGRTLHSFVRDPKTSLDINKTRQIAQEIIKGMGYLHAKGIVHKDLKSKNVFYDNGKVVITDFGLFGISGVVREERRENQLKLSHDWLCYLAPEIVREMIPGRDEDQLPFSKAADVYAFGTVWYELQARDWPFKHQPAEALIWQIGSGEGVRRVLASVSLGKEVGEILSACWAFDLQERPSFSLLMDMLERLPKLNRRLSHPGHFWKSADINSSKVMPRFERFGLGTLESGNPKM | marked increase in Raf-dependent MEK1 phosphorylation | no direct effect | –
EGF: EGF (protein, UniProt P01133 23-1207, looked up, Pro-epidermal growth factor) Pro-epidermal growth factor: PQHWSCPEGTLAGNGNSTCVGPAPFLIFSHGNSIFRIDTEGTNYEQLVVDAGVSVIMDFHYNEKRIYWVDLERQLLQRVFLNGSRQERVCNIEKNVSGMAINWINEEVIWSNQQEGIITVTDMKGNNSHILLSALKYPANVAVDPVERFIFWSSEVAGSLYRADLDGVGVKALLETSEKITAVSLDVLDKRLFWIQYNREGSNSLICSCDYDGGSVHISKHPTQHNLFAMSLFGDRIFYSTWKMKTIWIANKHTGKDMVRINLHSSFVPLGELKVVHPLAQPKAEDDTWEPEQKLCKLRKGNCSSTVCGQDLQSHLCMCAEGYALSRDRKYCEDVNECAFWNHGCTLGCKNTPGSYYCTCPVGFVLLPDGKRCHQLVSCPRNVSECSHDCVLTSEGPLCFCPEGSVLERDGKTCSGCSSPDNGGCSQLCVPLSPVSWECDCFPGYDLQLDEKSCAASGPQPFLLFANSQDIRHMHFDGTDYGTLLSQQMGMVYALDHDPVENKIYFAHTALKWIERANMDGSQRERLIEEGVDVPEGLAVDWIGRRFYWTDRGKSLIGRSDLNGKRSKIITKENISQPRGIAVHPMAKRLFWTDTGINPRIESSSLQGLGRLVIASSDLIWPSGITIDFLTDKLYWCDAKQSVIEMANLDGSKRRRLTQNDVGHPFAVAVFEDYVWFSDWAMPSVMRVNKRTGKDRVRLQGSMLKPSSLVVVHPLAKPGADPCLYQNGGCEHICKKRLGTAWCSCREGFMKASDGKTCLALDGHQLLAGGEVDLKNQVTPLDILSKTRVSEDNITESQHMLVAEIMVSDQDDCAPVGCSMYARCISEGEDATCQCLKGFAGDGKLCSDIDECEMGVPVCPPASSKCINTEGGYVCRCSEGYQGDGIHCLDIDECQLGEHSCGENASCTNTEGGYTCMCAGRLSEPGLICPDSTPPPHLREDDHHYSVRNSDSECPLSHDGYCLHDGVCMYIEALDKYACNCVVGYIGERCQYRDLKWWELRHAGHGQQQKVIVVAVCVVVLVMLLLLSLWGAHYYRTQKLLSKNPKNPYEESSRDVRSRRPADTEDGMSSCPQPWFVVIKEHQDLKNGGQPVAGEDGQAADGSMQPTSWRQEPQLCGMGTEQGCWIPVSSDKGSCPQVMERSFHMPSYGTQTLEGGVEKPHSLLSANPLWQQRALDPPHQMELTQ | – | – | does not activate KSR/CAP kinase
